# Positions count from the first letter of the chain named. Names may count otherwise.
# B1: 2LEC 24 (VHH)
# VHH: QVQLQESGGGLVQAGGSLRLSCAASGRTFSTYAMGWFRQAPGKERGLVAAISWSGGSTYYADSVKGRFTIFRDNAENTVYLQMNSLKPEDTAVYYCAAEAEGSGREGNFYERSWYQGQGTQVTVSS
# notes: Entry includes C-terminal AAA-HA-His tag (pMECS); only five His are printed in the text
# B2: 3LEC_89_opt1 (E1D-Q5V-Q108L) (VHH)
# VHH: DVQLVESGGGLVQPGGSLRLSCAASGRIFSVNAMGWYRQAPGKQRELVAAITNQGAPTYADSVKGRFTISRDNAGNTVYLQMNSLRPEDTAVYYCKAFTRGDDYWGQGTLVTVSS
# notes: The entry already carries the named substitutions; pHEN6C, C-terminal his6 tag
# B3: 3LEC_89_opt2 (E1D-Q5V-Q108L-A74S) (VHH)
# VHH: B2 VHH with A74S
# notes: as for B2
# B4: 3LEC_89_opt3 (E1D-Q5V-Q108L-G75K) (VHH)
# VHH: B2 VHH with G75K
# notes: as for B2
# B5: 3LEC_89_opt4 (E1D-Q5V-Q108L-A74S-G75K) (VHH)
# VHH: B2 VHH with A74S, G75K
# notes: as for B2
# Target: T1, human Clec9A (human, UniProt Q6UXN8 1-241)
# T1 construct: Expressed on transfected CHO-K1, HEK293-T and HL116 cells, or native on human dendritic cells; also called hClec9A; C-type lectin domain family 9 member A
# T1 sequence (Q6UXN8 whole entry, the tested form may be a part): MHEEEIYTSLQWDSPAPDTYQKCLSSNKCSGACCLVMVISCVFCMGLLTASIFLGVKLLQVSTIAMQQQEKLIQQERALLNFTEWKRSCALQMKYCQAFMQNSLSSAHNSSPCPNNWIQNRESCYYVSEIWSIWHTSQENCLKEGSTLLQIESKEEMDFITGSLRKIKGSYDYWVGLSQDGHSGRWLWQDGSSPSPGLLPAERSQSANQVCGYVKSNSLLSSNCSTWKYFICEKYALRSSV
# Assay: flow cytometry, crude periplasmic extracts on CHO-K1 cells stably transfected with human Clec9A
# Description: A VHH library was constructed from an immunized of a llama. Three consecutive rounds of panning of a VHH library were performed in solution using stably transfected CHO-K cells expressing human Clec9A. The enrichment for antigen-specific phages was assessed after each round of panning by comparing the number of phagemid particles eluted from transfected cells (output) with the number of phagemid particles used for panning (input). The phage output increased about 10-fold in the 2nd round and about 10³-fold in the 3rd round, as compared to the output from the 1st round. The input phage was always about 10¹¹ and the output from first round was about 10⁸ phage particles. 285 randomly selected colonies from the 1st, 2nd and 3rd panning rounds (95 from each round) were sequenced and then grouped based on CDR3 sequences. Using crude periplasmic extracts including VHHs, 95 unique sequences were analyzed by flow cytometry for specificity to human Clec9A using CHO-K1 cells stably transfected with human Clec9A. The parental non-transfected CHO-K1 cells served as negative control cell. An irrelevant VHH was used as negative nanobody control. […] Table B below provides a description of 66 clones representing the 66 different anti-human Clec9A VHH genes. E. coli TG1 harboring recombinant phagemid pMECS containing anti-human Clec9A VHH sequences was generated and stored at […]. […]
row,binding result,Binder
1,binds,B1

# Target: T2, biotinylated human CLEC9A (human, UniProt Q6UXN8 57-241, limits assumed, biotinylated (site not stated))
# T2 construct: Captured on a streptavidin sensor for BLI
# T2 sequence (Q6UXN8 57-241 limits assumed): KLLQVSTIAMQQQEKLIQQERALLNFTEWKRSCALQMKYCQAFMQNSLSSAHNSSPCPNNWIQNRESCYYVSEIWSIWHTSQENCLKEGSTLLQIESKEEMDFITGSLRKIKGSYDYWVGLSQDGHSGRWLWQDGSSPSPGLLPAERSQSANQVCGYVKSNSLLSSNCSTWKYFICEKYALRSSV
# Assay: BLI (Octet), biotinylated human CLEC9A on streptavidin sensor, VHH at 50, 100 and 200 nM, global analysis
# Description: Affinities of the AFN's for Clec9A were determined using the bio-layer interferometry technology on an Octet system (ForteBio).
Kd [nM],koff [s⁻¹],kon [M⁻¹ s⁻¹],Binder
2.2,0.000861,391000,B2
2.41,0.000817,338000,B3
2.56,0.00112,438000,B4
2.35,0.000982,417000,B5
